Measurements taken from article PMC12846707, “Structural and Functional Analysis of Porcine CR1-like Proteins in C4b-Mediated Immune Responses” (Veterinary Sciences, 2025).

B1: Recombinant C4b α chain (domain or fragment)
chain: AMELLQEEELIEEDDIPVRSFFPENWLWRVEEVPHSLQLSLLLPDSLTTWEIHGVSLSKSTGLCVATPARVRVFREFHLHLRLPVSIHRFEQLELRPVLYNYLDKDVPVSVHVSPVEGLCLAGGGGLAQQVLVPAGSARPVGFSVVPISAAAVSLKVVARGSFDFPVGDAVSKILQIANEGAIHQEELVYALNPQNVLGRNLEIPGHSDPNVIPDGDFRSFVRLTASDPLDTLGSEGALSPGGLASLLRLPRGCAEQTMFYLAPTLAASRYLDKTEQWSTLPPETKDHAVDLIQKGYTRIQEFRKNDGSYGAWLHRESSTWLTAFVLKVLSLAQEQVGGSPEKLQETAAWLLLQQKEDGSFHDPCPVIHRDMQGGLVGNDEKVALTAFVVIALHHGLAVFQDRNAEQFKRVENAISTANDFLGEKVSSGLLGSHAAAISAYALSLSGAPEQLQDIAHNNLMAMAQKIGDHLFWGTVPSSQSNTLSPTPAPQRPTDPMPQAPALWIETTAYALLHLLIREGKAEMADQTASWLTRQGSYKGGFRSTQDTVIALDALSAYWILSHTTEEKELNVTLSSMSRGGFKSHVVRLTNHQVKGLEEELQFSLGSKINVKVGGNSKGTLKILRAYNVIDLKNTTCQDLQIEVTVKGHVEYMLEANEDYEEYEYEDLPAQDDPGAHSQPVTPLQLFDG

Experiments:
Assay in all cases: SPR; Biacore 8K, single-cycle; C4bα and C4bβ covalently immobilised on CM5 chip (about 1500 RU); CR1-like fragments or mutant as mobile phase, 1.56 × 10^-2 to 4 μM; 25 °C; 10 mM HEPES pH 7.4, 150 mM NaCl, 0.05% Tween-20; apparent KD = kd/ka
Details in all cases: both partners purified
Recombinant C4b α chain = molecular target: B1
Recombinant C4b β chain = molecular target: T1, Recombinant C4b β chain (pig)
T1 construct: beta chain of porcine complement C4b, expressed as a separate chain; source: Escherichia coli (pET28a), purified (Ni-NTA, SP-HP cation exchange); not shown: 6His, N-terminal, kept; Flag-ppase, N-terminal, kept

[1] = molecular target: T2, Recombinant CR1-like CCPs 12-14 (pig)
T2 construct: porcine CR1-like, CCP domains 12-14; Section 2.12 describes 6His-sumo (N-terminal) and flag (C-terminal) tags and insect cells for 'CR1-like fragments' in general

Row | Binder | Kd (Recombinant C4b α chain) [nM] | Kd (Recombinant C4b β chain) [nM] | Kd [1] [nM]
1 | Recombinant CR1-like CCPs 1-3 (domain or fragment) not shown | 226 | 173 | 
2 | B1 |  |  | 317
